Results on six molecules are retold here after patent US11168306B2, “Phage wrapping” (priority 2014, dated 2021).

“Also recorded” adds a separate entry of the source.

B1: P100NSP-2: PEG100, non-specific attachment to ligand 2; bioconjugated to phage wrapped with K14-Cys (conjugate)
peptide 1: SECVEVFQNSCDW
peptide 2: KKKKKKKKKKKKKKC
chain: AEGDDPAKAAFNSLQASATEYIGYAWAMVVVIVGATIGIKLFKKFTSKAS
B2: P100NSP-P4-2+P100NSP-P4-1: dual PEGylated ligand combination with PEG4 linker, non-specific attachment, on phage (conjugate)
peptide 1: SECVEVFQNSCDW
peptide 2: CALCEFLG
peptide 3: KKKKKKKKKKKKKKC
chain: AEGDDPAKAAFNSLQASATEYIGYAWAMVVVIVGATIGIKLFKKFTSKAS
B3: 2:1 mixture of P100NSP-2 and P100NSP-1: dual PEGylated ligand combination wrapped on phage (conjugate)
peptide 1: SECVEVFQNSCDW
peptide 2: CALCEFLG
peptide 3: KKKKKKKKKKKKKKC
chain: AEGDDPAKAAFNSLQASATEYIGYAWAMVVVIVGATIGIKLFKKFTSKAS
B4: P100SP-2: PEG100, specific attachment to ligand 2 (conjugate)
peptide 1: SECVEVFQNSCDW
peptide 2: KKKKKKKKKKKKKKC
chain: AEGDDPAKAAFNSLQASATEYIGYAWAMVVVIVGATIGIKLFKKFTSKAS
B5: P100SP-P4-2: PEG100, specific attachment, PEG4 linker, ligand 2 (conjugate)
peptide 1: SECVEVFQNSCDW
peptide 2: KKKKKKKKKKKKKKC
chain: AEGDDPAKAAFNSLQASATEYIGYAWAMVVVIVGATIGIKLFKKFTSKAS
B6: P100SP-P4-2+P100SP-P4-1: dual PEGylated ligand combination with PEG4 linker, specific attachment, 2:1 ratio, on phage (conjugate)
peptide 1: SECVEVFQNSCDW
peptide 2: CALCEFLG
peptide 3: KKKKKKKKKKKKKKC
chain: AEGDDPAKAAFNSLQASATEYIGYAWAMVVVIVGATIGIKLFKKFTSKAS

T1 sequence (Q04609 whole entry): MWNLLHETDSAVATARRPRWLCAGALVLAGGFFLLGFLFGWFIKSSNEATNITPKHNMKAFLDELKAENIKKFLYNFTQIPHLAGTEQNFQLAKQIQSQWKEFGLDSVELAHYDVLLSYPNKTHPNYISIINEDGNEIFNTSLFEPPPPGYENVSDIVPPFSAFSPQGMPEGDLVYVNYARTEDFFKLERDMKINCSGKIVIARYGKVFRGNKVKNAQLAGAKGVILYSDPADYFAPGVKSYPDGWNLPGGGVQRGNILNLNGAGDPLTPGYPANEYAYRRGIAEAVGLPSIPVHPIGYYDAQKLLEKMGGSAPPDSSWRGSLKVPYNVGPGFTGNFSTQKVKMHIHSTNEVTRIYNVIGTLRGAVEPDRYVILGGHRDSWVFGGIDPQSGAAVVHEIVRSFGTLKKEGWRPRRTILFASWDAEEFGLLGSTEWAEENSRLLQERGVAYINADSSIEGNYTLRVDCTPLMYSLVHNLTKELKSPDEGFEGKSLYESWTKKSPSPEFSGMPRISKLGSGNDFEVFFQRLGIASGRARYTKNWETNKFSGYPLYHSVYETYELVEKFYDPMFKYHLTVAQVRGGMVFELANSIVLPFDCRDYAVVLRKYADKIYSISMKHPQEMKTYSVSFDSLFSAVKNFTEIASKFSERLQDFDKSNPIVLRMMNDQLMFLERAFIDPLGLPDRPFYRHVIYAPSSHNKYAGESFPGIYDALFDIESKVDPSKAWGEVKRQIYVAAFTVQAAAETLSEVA

One assay addresses T1, PSMA on LNCaP cells (Homo sapiens, UniProt Q04609).
T1 construct: specific recognition of PSMA on the surface of LNCaP cells; endogenous in cells; host or cells: LNCaP (also LNCaP CSS); glutaraldehyde-fixed on the plate
As to the kind of experiment: Cell-based phage ELISA, recognition of cell surface PSMA. The following applies: PEGylated ligands on phage wrapped with K14-Cys. Here is the method:
The cell-based ELISA was performed as previously described by Watanabe et. al. with several modifications. See e.g., Watanabe, K.; et al., Clin. Biochem. 2001, 34, 291-295. Cells were detached with Trypsin-EDTA, resuspended in PBS, and then collected by centrifuging at 1200 rpm for 5 min. The cells were further washed with PBS and then concentrated as in the previous step. The concentration of the cells was adjusted to 4.5×10^6 cells/mL in PBS using a hemocytometer, and 100 μL was aliquoted to specific wells of a 96-well microtiter (Nunc Maxisorp). Next, 50 μL of 0.15% of glutaraldehyde in PBS was added to the wells at 4° C., and the solution was gently mixed by pipetting. The ELISA plate was then centrifuged at 1200 rpm for 10 min at 4° C., followed by overnight incubation at 4° C. The cell solution was gently removed, and the wells were blocked with 200 μL/well of blocking buffer containing 100 mM glycine, 1% gelatin and 0.1% w/v BSA (bovine serum albumin) in PBS. The plate was incubated overnight (˜20-22 h) at room temperature.
Separately, phage wrapped with PEG and PEGylated ligands were prepared. Phage (10 nM in 100 μL) and 1 μL of K14-alkyne (525 μM in water) were thoroughly mixed by pipetting ˜25 times. For phage wrapped with PEGylated ligands, phage were mixed with 0.75 μL of K14-Cys (525 μM in water). For mixed wrapping on phage surface, 0.5 μL of K14-alkyne was pre-mixed with 0.75 μL of K14-Cys, and then mixed with 100 μL of 10 nM phage. The solution was shaken at room temperature for 15 min on an orbital shaker. Next, 2 μL of PEGylated ligand (625 μM in water) was added to the appropriate wells. For the dual ligand combinations, the PEGylated ligands were pre-mixed in the desired ratio (2:1 for example), and then 2 μL of the mixture was added to the appropriate wells. The solutions were gently mixed by pipetting, and incubated overnight at 4° C.
Next, the click reaction was performed, as previously described, but with the following modifications.^1,2 Triethylammonium acetate was added to a final concentration of 50 mM, followed by the addition of 1.5 μL of 1 mM azide-functionalized PEG. The solutions were mixed by pipetting. Next, ascorbic acid was added to a final concentration of 1 mM and the solutions were mixed by gently pipetting. Next, copper sulfate was added to a final concentration of 1.5 mM, followed by pipetting to mix the solutions. Water was added to the other wells to maintain a consistent phage concentration. The plate was incubated at room temperature for 30 min.
The wells on the ELISA plate were then incubated with the phage samples. The blocking buffer was removed and the wells were gently washed two times with PBS. Next, the phage solution was added to the respective wells and incubated for 45 min. The phage solution was removed, and the wells were washed three times with 300 μL/well of wash buffer PT (0.05% TWEEN-20 in PBS), once with PBS, and then incubated with horseradish-peroxidase-conjugated anti-M13 antibody (100 μL/well, 1:5000 dilution in PBS) for 40 min. The wells were washed three times with PT and once with PBS. The plate was then developed by incubating with HRP substrate solution (100 μL/well; 1 mg/mL o-phenylenediamine dihydrochloride and 0.02% w/v H2O2) in citric acid buffer (50 mM citric acid, 50 mM Na2HPO4, pH 5.0). The HRP activity was measured spectrophotometrically at 450 nm using a microtiter plate reader (Bio-Tek). The absorbance at 630 nm was subtracted from the absorbance at 450 nm to eliminate background.
In the case of B1, the “relative binding affinity for cell surface PSMA on LNCaP cells” value (“relative binding affinity” below) was “higher affinity for LNCaP cells compared to P100NSP-1”.

Take B2: the “relative binding affinity” value is given as “drop in affinity; also recorded: affinity equivalent to P100NSP-P4-2”.

Turning to B3, the “relative binding affinity” value is given as “maximize the recognition of PSMA on LNCaP cells”.

For the molecule B4, the “relative binding affinity” value is listed as “higher binding affinity for cell surface PSMA than P100NSP-2”.

Regarding B5, the “relative binding affinity” value was “most effective PEGylated ligand for recognition of PSMA on the cell surface”.

On to B6, for which the “relative binding affinity” value is listed as “significant increase in binding affinity”.

Staying with this assay, now noted: PEGylated ligands on phage wrapped with K14-Cys; listed as P100NSP-2+P100NSP-1.
On to B3, for which the “relative binding affinity” value was “modest improvement”.
